The supplement of paper PMC5998384

Key:
[1] = test system: HeLa Kyoto; experiment: solubility in G1/S (NP-40 vs SDS abundance) (log2 ratio); higher = more soluble; conditions: cell cycle stage: G1/S
[2] = test system: HeLa Kyoto; experiment: melting temperature (median over replicates), in situ; higher = more thermally stable
[3] = test system: HeLa Kyoto; experiment: solubility change mitosis vs G1/S (difference of NP-40 vs SDS log2 ratios) (log2 ratio difference); higher = more soluble in mitosis
[4] = test system: HeLa Kyoto; experiment: thermal stability score vs G1/S (z-score of summed log2 fold changes over temperatures); higher = more thermally stable than in G1/S
[5] = cell cycle stage: early G1 (4.5 h after nocodazole release)
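For melting temperature (median over replicates), in situ in this document: HeLa Kyoto cells synchronized by double thymidine or nocodazole block, proteins quantified by TMT10plex mass spectrometry, three independent biological replicates.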
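For solubility change mitosis vs G1/S (difference of NP-40 vs SDS log2 ratios) in this document: synchronized HeLa Kyoto cells (double thymidine block for G1/S, nocodazole release for mitosis), protein amounts in NP-40 versus SDS lysates quantified by mass spectrometry, three biological replicates.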
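For solubility in G1/S (NP-40 vs SDS abundance) in this document: HeLa Kyoto cells arrested at G1/S by double thymidine block, proteins quantified by TMT10plex mass spectrometry in mild NP-40 versus SDS extracts, three biological replicates.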
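For thermal stability score vs G1/S (z-score of summed log2 fold changes over temperatures) in this document: synchronized HeLa Kyoto cells, proteins quantified by TMT10plex mass spectrometry, three biological replicates, mitosis taken 0.5 h after nocodazole release, G1/S directly after double thymidine block.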

| Sequence | solubility in G1/S (log2) [1] | melting temperature ([2]; cell cycle stage: G1/S) [°C] | melting temperature ([2]; cell cycle stage: mitosis) [°C] | solubility change mitosis (log2) [3] | thermal stability score [4, 5] | thermal stability score ([4]; cell cycle stage: mitosis) |
| --- | --- | --- | --- | --- | --- | --- |
| MVAPVLETSHVFCCPNRVRGVLNWSSGPRGLLAFGTSCSVVLYDPLKRVVVTNLNGHTARVNCIQWICKQDGSPSTELVSGGSDNQVIHWEIEDNQLLKAVHLQGHEGPVYAVHAVYQRRTSDPALCTLIVSAAADSAVRLWSKKGPEVMCLQTLNFGNGFALALCLSFLPNTDVPILACGNDDCRIHIFAQQNDQFQKVLSLCGHEDWIRGVEWAAFGRDLFLASCSQDCLIRIWKLYIKSTSLETQDDDNIRLKENTFTIENESVKIAFAVTLETVLAGHENWVNAVHWQPVFYKDGVLQQPVRLLSASMDKTMILWAPDEESGVWLEQVRVGEVGGNTLGFYDCQFNEDGSMIIAHAFHGALHLWKQNTVNPREWTPEIVISGHFDGVQDLVWDPEGEFIITVGTDQTTRLFAPWKRKDQSQVTWHEIARPQIHGYDLKCLAMINRFQFVSGADEKVLRVFSAPRNFVENFCAITGQSLNHVLCNQDSDLPEGATVPALGLSNKAVFQGDIASQPSDEEELLTSTGFEYQQVAFQPSILTEPPTEDHLLQNTLWPEVQKLYGHGYEIFCVTCNSSKTLLASACKAAKKEHAAIILWNTTSWKQVQNLVFHSLTVTQMAFSPNEKFLLAVSRDRTWSLWKKQDTISPEFEPVFSLFAFTNKITSVHSRIIWSCDWSPDSKYFFTGSRDKKVVVWGECDSTDDCIEHNIGPCSSVLDVGGAVTAVSVCPVLHPSQRYVVAVGLECGKICLYTWKKTDQVPEINDWTHCVETSQSQSHTLAIRKLCWKNCSGKTEQKEAEGAEWLHFASCGEDHTVKIHRVNKCAL [ELP2] | -0.174 | 51.7 | 51.4 | -0.181 | -0.251 | -1.61 |
| MVDKKLVVVFGGTGAQGGSVARTLLEDGTFKVRVVTRNPRKKAAKELRLQGAEVVQGDQDDQVIMELALNGAYATFIVTNYWESCSQEQEVKQGKLLADLARRLGLHYVVYSGLENIKKLTAGRLAAAHFDGKGEVEEYFRDIGVPMTSVRLPCYFENLLSHFLPQKAPDGKSYLLSLPTGDVPMDGMSVSDLGPVVLSLLKMPEKYVGQNIGLSTCRHTAEEYAALLTKHTRKVVHDAKMTPEDYEKLGFPGARDLANMFRFYALRPDRDIELTLRLNPKALTLDQWLEQHKGDFNLL [NMRAL1] | 0.417 | 48.9 | 49.3 | -0.127 | 4.25 | 3.59 |
| MVDPVGFAEAWKAQFPDSEPPRMELRSVGDIEQELERCKASIRRLEQEVNQERFRMIYLQTLLAKEKKSYDRQRWGFRRAAQAPDGASEPRASASRPQPAPADGADPPPAEEPEARPDGEGSPGKARPGTARRPGAAASGERDDRGPPASVAALRSNFERIRKGHGQPGADAEKPFYVNVEFHHERGLVKVNDKEVSDRISSLGSQAMQMERKKSQHGAGSSVGDASRPPYRGRSSESSCGVDGDYEDAELNPRFLKDNLIDANGGSRPPWPPLEYQPYQSIYVGGMMEGEGKGPLLRSQSTSEQEKRLTWPRRSYSPRSFEDCGGGYTPDCSSNENLTSSEEDFSSGQSSRVSPSPTTYRMFRDKSRSPSQNSQQSFDSSSPPTPQCHKRHRHCPVVVSEATIVGVRKTGQIWPNDGEGAFHGDADGSFGTPPGYGCAADRAEEQRRHQDGLPYIDDSPSSSPHLSSKGRGSRDALVSGALESTKASELDLEKGLEMRKWVLSGILASEETYLSHLEALLLPMKPLKAAATTSQPVLTSQQIETIFFKVPELYEIHKEFYDGLFPRVQQWSHQQRVGDLFQKLASQLGVYRAFVDNYGVAMEMAEKCCQANAQFAEISENLRARSNKDAKDPTTKNSLETLLYKPVDRVTRSTLVLHDLLKHTPASHPDHPLLQDALRISQNFLSSINEEITPRRQSMTVKKGEHRQLLKDSFMVELVEGARKLRHVFLFTDLLLCTKLKKQSGGKTQQYDCKWYIPLTDLSFQMVDELEAVPNIPLVPDEELDALKIKISQIKNDIQREKRANKGSKATERLKKKLSEQESLLLLMSPSMAFRVHSRNGKSYTFLISSDYERAEWRENIREQQKKCFRSFSLTSVELQMLTNSCVKLQTVHSIPLTINKEDDESPGLYGFLNVIVHSATGFKQSSNLYCTLEVDSFGYFVNKAKTRVYRDTAEPNWNEEFEIELEGSQTLRILCYEKCYNKTKIPKEDGESTDRLMGKGQVQLDPQALQDRDWQRTVIAMNGIEVKLSVKFNSREFSLKRMPSRKQTGVFGVKIAVVTKRERSKVPYIVRQCVEEIERRGMEEVGIYRVSGVATDIQALKAAFDVNNKDVSVMMSEMDVNAIAGTLKLYFRELPEPLFTDEFYPNFAEGIALSDPVAKESCMLNLLLSLPEANLLTFLFLLDHLKRVAEKEAVNKMSLHNLATVFGPTLLRPSEKESKLPANPSQPITMTDSWSLEVMSQVQVLLYFLQLEAIPAPDSKRQSILFSTEV [BCR] | -0.109 | 49 | 49.2 | -0.114 | 0.827 | 1.59 |
| MVEDELALFDKSINEFWNKFKSTDTSCQMAGLRDTYKDSIKAFAEKLSVKLKEEERMVEMFLEYQNQISRQNKLIQEKKDNLLKLIAEVKGKKQELEVLTANIQDLKEEYSRKKETISTANKANAERLKRLQKSADLYKDRLGLEIRKIYGEKLQFIFTNIDPKNPESPFMFSLHLNEARDYEVSDSAPHLEGLAEFQENVRKTNNFSAFLANVRKAFTATVYN [SPC25] | 0.585 | 49.5 | 49.6 | 0.0937 | -0.881 | -0.275 |
| MVEEVQKHSVHTLVFRSLKRTHDMFVADNGKPVPLDEESHKRKMAIKLRNEYGPVLHMPTSKENLKEKGPQNATDSYVHKQYPANQGQEVEYFVAGTHPYPPGPGVALTADTKIQRMPSESAAQSLAVALPLQTKADANRTAPSGSEYRHPGASDRPQPTAMNSIVMETGNTKNSALMAKKAPTMPKPQWHPPWKLYRVISGHLGWVRCIAVEPGNQWFVTGSADRTIKIWDLASGKLKLSLTGHISTVRGVIVSTRSPYLFSCGEDKQVKCWDLEYNKVIRHYHGHLSAVYGLDLHPTIDVLVTCSRDSTARIWDVRTKASVHTLSGHTNAVATVRCQAAEPQIITGSHDTTIRLWDLVAGKTRVTLTNHKKSVRAVVLHPRHYTFASGSPDNIKQWKFPDGSFIQNLSGHNAIINTLTVNSDGVLVSGADNGTMHLWDWRTGYNFQRVHAAVQPGSLDSESGIFACAFDQSESRLLTAEADKTIKVYREDDTATEETHPVSWKPEIIKRKRF [PLRG1] | -0.776 | 50.6 | 50.6 | 0.247 | -0.0826 | -5.45 |
| MVEKEEAGGGISEEEAAQYDRQIRLWGLEAQKRLRASRVLLVGLKGLGAEIAKNLILAGVKGLTMLDHEQVTPEDPGAQFLIRTGSVGRNRAEASLERAQNLNPMVDVKVDTEDIEKKPESFFTQFDAVCLTCCSRDVIVKVDQICHKNSIKFFTGDVFGYHGYTFANLGEHEFVEEKTKVAKVSQGVEDGPDTKRAKLDSSETTMVKKKVVFCPVKEALEVDWSSEKAKAALKRTTSDYFLLQVLLKFRTDKGRDPSSDTYEEDSELLLQIRNDVLDSLGISPDLLPEDFVRYCFSEMAPVCAVVGGILAQEIVKALSQRDPPHNNFFFFDGMKGNGIVECLGPK [SAE1] | 0.0883 | 52.4 | 52.3 | -0.153 | 0.0359 | 0.096 |
| MVGEEKMSLRNRLSKSRENPEEDEDQRNPAKESLETPSNGRIDIKQLIAKKIKLTAEAEELKPFFMKEVGSHFDDFVTNLIEKSASLDNGGCALTTFSVLEGEKNNHRAKDLRAPPEQGKIFIARRSLLDELLEVDHIRTIYHMFIALLILFILSTLVVDYIDEGRLVLEFSLLSYAFGKFPTVVWTWWIMFLSTFSVPYFLFQHWATGYSKSSHPLIRSLFHGFLFMIFQIGVLGFGPTYVVLAYTLPPASRFIIIFEQIRFVMKAHSFVRENVPRVLNSAKEKSSTVPIPTVNQYLYFLFAPTLIYRDSYPRNPTVRWGYVAMKFAQVFGCFFYVYYIFERLCAPLFRNIKQEPFSARVLVLCVFNSILPGVLILFLTFFAFLHCWLNAFAEMLRFGDRMFYKDWWNSTSYSNYYRTWNVVVHDWLYYYAYKDFLWFFSKRFKSAAMLAVFAVSAVVHEYALAVCLSFFYPVLFVLFMFFGMAFNFIVNDSRKKPIWNVLMWTSLFLGNGVLLCFYSQEWYARQHCPLKNPTFLDYVRPRSWTCRYVF [SOAT1] | -0.292 | 52.2 | 52 | -0.0778 | 0.192 | 0.0734 |
| MVGRNSAIAAGVCGALFIGYCIYFDRKRRSDPNFKNRLRERRKKQKLAKERAGLSKLPDLKDAEAVQKFFLEEIQLGEELLAQGEYEKGVDHLTNAIAVCGQPQQLLQVLQQTLPPPVFQMLLTKLPTISQRIVSAQSLAEDDVE [TOMM20] | 0.747 | 49.7 | 51.7 | 0.294 | -2.96 | -4.96 |
| MVGSLNCIVAVSQNMGIGKNGDLPWPPLRNEFRYFQRMTTTSSVEGKQNLVIMGKKTWFSIPEKNRPLKGRINLVLSRELKEPPQGAHFLSRSLDDALKLTEQPELANKVDMVWIVGGSSVYKEAMNHPGHLKLFVTRIMQDFESDTFFPEIDLEKYKLLPEYPGVLSDVQEEKGIKYKFEVYEKND [DHFR] | 0.294 | 47.9 | 49.1 | -0.139 | 1.37 | 2.73 |
| MVHCSCVLFRKYGNFIDKLRLFTRGGSGGMGYPRLGGEGGKGGDVWVVAQNRMTLKQLKDRYPRKRFVAGVGANSKISALKGSKGKDCEIPVPVGISVTDENGKIIGELNKENDRILVAQGGLGGKLLTNFLPLKGQKRIIHLDLKLIADVGLVGFPNAGKSSLLSCVSHAKPAIADYAFTTLKPELGKIMYSDFKQISVADLPGLIEGAHMNKGMGHKFLKHIERTRQLLFVVDISGFQLSSHTQYRTAFETIILLTKELELYKEELQTKPALLAVNKMDLPDAQDKFHELMSQLQNPKDFLHLFEKNMIPERTVEFQHIIPISAVTGEGIEELKNCIRKSLDEQANQENDALHKKQLLNLWISDTMSSTEPPSKHAVTTSKMDII [GTPBP10] | 0.217 | 49.4 | 50.8 | 0.0276 | -0.944 | 0.176 |
| MVIRVYIASSSGSTAIKKKQQDVLGFLEANKIGFEEKDIAANEENRKWMRENVPENSRPATGYPLPPQIFNESQYRGDYDAFFEARENNAVYAFLGLTAPPGSKEAEVQAKQQA [SH3BGRL] | 0.375 | 53.2 | 53 | -0.0943 | -0.605 | -2.76 |
| MVKLAAKCILAGDPAVGKTALAQIFRSDGAHFQKSYTLTTGMDLVVKTVPVPDTGDSVELFIFDSAGKELFSEMLDKLWESPNVLCLVYDVTNEESFNNCSKWLEKARSQAPGISLPGVLVGNKTDLAGRRAVDSAEARAWALGQGLECFETSVKEMENFEAPFHCLAKQFHQLYREKVEVFRALA [IFT27] | 0.371 | 52.3 | 53.7 | -0.134 | -0.15 | -0.857 |
| MVKLFIGNLPREATEQEIRSLFEQYGKVLECDIIKNYGFVHIEDKTAAEDAIRNLHHYKLHGVNINVEASKNKSKTSTKLHVGNISPTCTNKELRAKFEEYGPVIECDIVKDYAFVHMERAEDAVEAIRGLDNTEFQGKRMHVQLSTSRLRTAPGMGDQSGCYRCGKEGHWSKECPIDRSGRVADLTEQYNEQYGAVRTPYTMSYGDSLYYNNAYGALDAYYKRCRAARSYEAVAAAAASVYNYAEQTLSQLPQVQNTAMASHLTSTSLDPYDRHLLPTSGAAATAAAAAAAAAAVTAASTSYYGRDRSPLRRATAPVPTVGEGYGYGHESELSQASAAARNSLYDMARYEREQYADRARYSAF [RBM4] | 0.281 | 49.6 | 48 | -0.0121 | -0.245 | -0.114 |
| MVLSELAARLNCAEYKNWVKAGHCLLLLRSCLQGFVGREVLSFHRGLLAAAPGLGPRAVCRGGSRCSPRARQFQPQCQVCAEWKREILRHHVNRNGDVHWGNCRPGRWPVDAWEVAKAFMPRGLADKQGPEECDAVALLSLINSCDHFVVDRKKVTEVIKCRNEIMHSSEMKVSSTWLRDFQMKIQNFLNEFKNIPEIVAVYSRIEQLLTSDWAVHIPEEDQRDGCECEMGTYLSESQVNEIEMQLLKEKLQEIYLQAEEQEVLPEELSNRLEVVKEFLRNNEDLRNGLTEDMQKLDSLCLHQKLDSQEPGRQTPDRKA [CXORF38] | 0.0857 | 52.5 | 52.1 | -0.0263 | -0.304 | 2.18 |
